Assay results reported in paper PMC10400029, “Bicarbonate activation of the monomeric photosystem II-PsbS/Psb27 complex” (Plant Physiology, 2023).

Tests used:
[1] = target: photosystem II monomer core complex (PSIIm), His6-tagged on PsbE (N. tabacum | N. tabacum (endogenous in tobacco thylakoids)) (UniProt P69384)
[2] = target: T1, PSIIm-S/27 (monomeric photosystem II-PsbS/Psb27 complex) (Nicotiana tabacum, UniProt P69556+P69686); test: flash-induced chlorophyll fluorescence decay; format: biochemical; conditions: 10 µM DCMU, 15 °C (also 20 °C), pH 6.5; QB site, blocks electron transfer from QA
T1 construct: gene psbA; native PSII core monomer from stromal lamellae/grana margins; His6 tag at 5' end of psbE; beta-DDM; PsbS and Psb27 quasi-stoichiometric; with Photosystem II CP47 reaction center protein; Photosystem II CP43 reaction center protein; Cytochrome b559 subunit alpha; Cytochrome b559 subunit beta; Photosystem II 22 kDa protein, chloroplastic; Photosystem II repair protein PSB27, chloroplastic

Chain of PsbS (Q9SMB4 67-274): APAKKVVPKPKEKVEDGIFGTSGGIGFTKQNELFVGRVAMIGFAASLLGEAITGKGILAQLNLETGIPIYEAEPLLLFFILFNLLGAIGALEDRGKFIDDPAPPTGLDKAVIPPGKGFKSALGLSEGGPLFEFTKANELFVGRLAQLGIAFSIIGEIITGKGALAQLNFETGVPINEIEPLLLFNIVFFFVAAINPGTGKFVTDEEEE

decay of flash-induced chlorophyll fluorescence yield (QA^•− oxidation) at 15 °C, PSIIm-S/27 against PSIIm [1]	Compound	flash-induced chlorophyll fluorescence decay [2]
10 fold	PsbS (from UniProt Q9SMB4 67-274) (natural protein)	
10 fold	Psb27 (natural protein)	
	CN(C)C(=O)Nc1ccc(Cl)c(Cl)c1 [DCMU]	presence of PsbS and/or Psb27 does not interfere with the DCMU binding
